Measurements taken from US20240197738.

Molecular target: EWS-FLI1-3A (S464A/S465A/S466A)

B1: OTUD7A (protein)
chain: MVSSVLPNPTSAECWAALLHDPMTLDMDAVLSDFVRSTGAEPGLARDLLEGKNWDLTAALSDYEQLRQVHTANLPHVFNEGRGPKQPEREPQPGHKVERPCLQRQDDIAQEKRLSRGISHASSAIVSLARSHVASECNNEQFPLEMPIYTFQLPDLSVYSEDFRSFIERDLIEQATMVALEQAGRLNWWSTVCTSCKRLLPLATTGDGNCLLHAASLGMWGFHDRDLVLRKALYTMMRTGAEREALKRRWRWQQTQQNKEEEWEREWTELLKLASSEPRTHFSKNGGTGGGVDNSEDPVYESLEEFHVFVLAHILRRPIVVVADTMLRDSGGEAFAPIPFGGIYLPLEVPPNRCHCSPLVLAYDQAHFSALVSMEQRDQQREQAVIPLTDSEHKLLPLHFAVDPGKDWEWGKDDNDNARLAHLILSLEAKLNLLHSYMNVTWIRIPSETRAPLAQPESPTASAGEDVQSLADSLDSDRDSVCSNSNSNNGKNGKDKEKEKQRKEKDKTRADSVANKLGSFSKTLGIKLKKNMGGLGGLVHGKMGRANSANGKNGDSAERGKEKKAKSRKGSKEESGASASTSPSEKTTPSPTDKAAGASPAEKGGGPRGDAWKYSTDVKLSLNILRAAMQGERKFIFAGLLLTSHRHQFHEEMIGYYLTSAQERFSAEQEQRRRDAATAAAAAAAAAAATAKRPPRRPETEGVPVPERASPGPPTQLVLKLKERPSPGPAAGRAARAAAGGTASPGGGARRASASGPVPGRSPPAPARQSVIHVQASGARDEACAPAVGALRPCATYPQQNRSLSSQSYSPARAAALRTVNTVESLARAVPGALPGAAGTAGAAEHKSQTYTNGFGALRDGLEFADADAPTARSNGECGRGGPGPVQRRCQRENCAFYGRAETEHYCSYCYREELRRRREARGARP
3A-EWS-FLI1 protein level after OTUD7A depletion (immunoblot, FIG. 3I): depletion of OTUD7A failed to reduce 3A-EWS-FLI1 protein levels
